Molecular target: human integrin αvβ3 (R&D Systems, 3050-AV-050) (human, UniProt P06756 31-1048; P05106 27-718)
Test: SPR

Kd: 2110 nM
B1: GFP-tagged full-length recombinant human D3 (1-304 aa), D3^FL (enzyme)
chain: MPRQATSRLVVGEGEGSQGASGPAATMLRSLLLHSLRLCAQTASCLVLFPRFLGTAFMLWLLDFLCIRKHFLGRRRRGQPEPEVELNSEGEEVPPDDPPICVSDDNRLCTLASLKAVWHGQKLDFFKQAHEGGPAPNSEVVLPDGFQSQHILDYAQGNRPLVLNFGSCTCPPFMARMSAFQRLVTKYQRDVDFLIIYIEEAHPSDGWVTTDSPYIIPQHRSLEDRVSAARVLQQGAPGCALVLDTMANSSSSAYGAYFERLYVIQSGTIMYQGGRGPDGYQVSELRTWLERYDEQLHGARPRRV

Reference: paper PMC8517284 (EBioMedicine, 2021)
